Our source for the amyloid nucleation score values is the supplement of paper PMC12042874.

± gives the uncertainty stated by the source.

This data set in a line: amyloid nucleation score (Sup35N fusion, yeast selection) (log enrichment); library NNK3; higher = more nucleation; inactive = no reads after selection. The procedure, abridged:
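Using DiMSum, nucleation scores were taken as the log enrichment of output over input reads, centred on the mode score of non-aggregating sequences. The input and output reads came from Illumina sequencing of plasmid inserts, with sequences under 100 input reads excluded. The yeast were psi-negative, expressed Sup35N fused to peptides of 20 random codons, were induced with 100 μM copper sulfate for 24 hours, and were grown 7 days at 30°C on medium lacking adenine and uracil.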
FSCPRVSIFGLCSNCMYQWW displayed an amyloid nucleation score of 2.43 ± 0.057.
For QARIWSSSVGAFSNCHSCRC, the amyloid nucleation score result is “inactive”.
Turning to YCAYLLRSLWLGTAWEWWRQ, the amyloid nucleation score entry is “inactive”.
For the substance PFDVHKRR, the amyloid nucleation score entry is “inactive”.
Consider SISPFN, for which the amyloid nucleation score result is “inactive”.
Substance QRSSHGPLGCLSDLQLNTLR gave an amyloid nucleation score of -0.882 ± 1.4.
Consider SFVQRVSLLMSVSVFETASS, for which the amyloid nucleation score entry is “inactive”.
With HIFDNSYIFLDLLLARKY the figure was 1.87 ± 0.061; with MLCTTLRNYMTSSICFIRYQ, “inactive”; with LVTFFSGRYGHWWLDNCWRQ, “inactive”.
Turning to ANAVLKIFTSVMGSVNS, the amyloid nucleation score result is “inactive”.
For the substance YQSGTLWCQCIWFKMRWRVH, the amyloid nucleation score entry is “inactive”.
Regarding FWWLEI, the amyloid nucleation score entry was “inactive”.
IIGTLSRMLDIGIIFVTT registered an amyloid nucleation score of -0.154 ± 0.88.
Regarding TNANRIGMGYDMNNYSTHYR, the amyloid nucleation score result was “inactive”.
Take FIDMN: the amyloid nucleation score result is “inactive”.
With AGNGPLSIYPMILMWMRVGR the entry was “inactive”.
In the case of WFYVIGTVMWYSLNAGYYMW it was “inactive”; in that of VSRFVLLWMSNCWATYGLFR, “inactive”.
In the case of PCLFTSSVSIFYNDALLVLS it was “inactive”; in that of PFPQWEKHYYFFAMNYFHFS, 1.75 ± 0.061.
For the substance YSGLGSIVTNGYSYIYGEVL, the amyloid nucleation score entry was “inactive”.
The substance TYMGSTYLSNSYVLVSNNIK came in with an amyloid nucleation score of 1.72 ± 0.12.
In the case of VSASILS, the amyloid nucleation score result was “inactive”.
Take LKRLSCFTGSPR: the amyloid nucleation score result was “inactive”.
In the case of SPGYINGNGSSVRSVFNL it was “inactive”.
For the substance FHLKKHWGKHGYFFMEDRRT, the amyloid nucleation score entry is “inactive”.
Regarding VRRTLYISMRLRLIPYLSNV, the amyloid nucleation score came to 1.62 ± 0.11.
For the substance CQGIMDRRTSKRMPIANMVQ, the amyloid nucleation score entry was “inactive”.
As for TFRICADMCCTGVR, the amyloid nucleation score stood at 1.45 ± 0.11.
For the substance FDRLNRDDVIFPSRDFNVSS, the amyloid nucleation score entry was “inactive”.
In the case of LLGRKRA it was “inactive”; in that of GKVVVN, “inactive”; in that of TVGQQWRPSRKLSSSSAIRN, “inactive”.
Take VFPGTAVNHMESVHGWLVNY: the amyloid nucleation score result is “inactive”.
Turning to DLVYHIEDMFGSMR, the amyloid nucleation score was 0.547 ± 0.22.
In the case of FSSRVRTMPLVGVM it was “inactive”; in that of TGTFDRWDPVTAGLPTGLGE, “inactive”; in that of ATVTWHYAAWTWLGFRPSSL, “inactive”.
Turning to RDLMEGRTTLWMNSGTAIWA, the amyloid nucleation score result was “inactive”.
In the case of NDRVIRVGVN, the amyloid nucleation score entry is “inactive”.
On to LVVYSVGFWHR, for which the amyloid nucleation score was -0.143 ± 0.48.
In the case of KHFLQVVRSSNRTVSARFPL it was “inactive”; in that of IDVSCMQNNILRRIGFHV, “inactive”.
In the case of NLKILPAVDHCSDHPMERNE, the amyloid nucleation score result is “inactive”.
As for HYSLNASIYSTCTRTSMNPV, the amyloid nucleation score was -0.136 ± 0.53.
On to LTVLSCTAQVDHGIAYCLEV, for which the amyloid nucleation score result was “inactive”.
Turning to VSIRTR, the amyloid nucleation score entry is “inactive”.
In the case of YKDRR, the amyloid nucleation score result was “inactive”.
With NRLNGSLILDRHLL the entry was “inactive”.
In turn, DLCVLAMASFEVAIAHGRPR yielded an amyloid nucleation score of 0.172 ± 0.88.
In the case of WYHGKWYLDLNYVVPVTQWK it was “inactive”.
In the case of WLVSRIVHSLVVVIFDKDEG, the amyloid nucleation score entry was “inactive”.
In the case of KLYESYASIRNNGCLRCSNS it was “inactive”.
As for SSFGTQLYWNMSKCRFTRGT, the amyloid nucleation score came to 1.16 ± 0.16.
In the case of SCMCYGTLLVLLYISYVMVE, the amyloid nucleation score result was “inactive”.
For VESVRVLVINPNSDNQVLYL, the amyloid nucleation score entry was “inactive”.
With YYFRAQADCFMYICVLDLDG, the amyloid nucleation score entry was “inactive”.
Regarding TICPTFPVGGMNISNGSYTM, the amyloid nucleation score entry is “inactive”.
In the case of RCYNHFHSI, the amyloid nucleation score entry is “inactive”.
RLCSVGLAVYYMACSEYKMR showed an amyloid nucleation score of 0.103 ± 0.29.
With FYCIVFQYGSLDLARH, the amyloid nucleation score is 2.69 ± 0.064.
For NDGFQYRGHRWCLYNHL, the amyloid nucleation score entry is “inactive”.
In the case of LHEEGCATVLKVGCALTSEC, the amyloid nucleation score entry was “inactive”.
Consider PVLML, for which the amyloid nucleation score result was “inactive”.
Turning to TIFKRSPACYYNGIHLWVTF, the amyloid nucleation score entry is “inactive”.
Turning to TRWQRCSAIPPVGEA, the amyloid nucleation score result was “inactive”.
Take FFKDSIVLGVSLRYQFSYLT: the amyloid nucleation score result was “inactive”.
Regarding SLLKINGGVIHYFSCRMEDW, the amyloid nucleation score was 0.684 ± 0.34.
Turning to HDESQVVLCRYCCSDVRLTH, the amyloid nucleation score result was “inactive”.
For the substance LESLPINNEFSMQSYTRIVI, the amyloid nucleation score result is “inactive”.
As for WIDRQLKRGL, the amyloid nucleation score entry was “inactive”.
With LVIWHIVKTAVMWTARTERL, the amyloid nucleation score is -0.409 ± 1.5.
As to FGVSIVRHQVLLCGLSCISL, the amyloid nucleation score came out at 1.85 ± 0.091.
RDPSQNTSKHLSNVAFISLY: the amyloid nucleation score entry was “inactive”.
With SHGLVIVRTKRPSNGFENGW, the amyloid nucleation score entry was “inactive”.
Consider FLWGICWYRMVMKAHFDFIC, for which the amyloid nucleation score entry was “inactive”.
Regarding AGRNMSLCNLHLILLCTSKC, the amyloid nucleation score result is “inactive”.
As for CGRNAAVSNARRCCSSKVCM, the amyloid nucleation score entry was “inactive”.
In the case of LYGIFHRYTNFCSSVLCQVF, the amyloid nucleation score stood at 1.66 ± 0.12.
In the case of LNIRGSFCFYGSWIVADFHM it was 0.336 ± 0.38.
On to FGIWRLCRFFA, for which the amyloid nucleation score result is “inactive”.
In the case of MCEMVFTWDSWLLRRIRQDW it was 1.5 ± 0.087.
In the case of GVRVS it was “inactive”; in that of VTRIW, “inactive”.
For the substance YLRGY, the amyloid nucleation score result was “inactive”.
Substance DRLALEFVYRR had an amyloid nucleation score of 0.145 ± 0.44.
Turning to CPCGNVGVFLGLTRTVKGKS, the amyloid nucleation score result is “inactive”.
With VIRRYCAGARHYSVLEIMRE the entry was “inactive”; with DLVEVIYSVTSYYPNYLRAK, “inactive”.
Regarding FDVDGLILFICWCMQRAHM, the amyloid nucleation score result is “inactive”.
Take LLTVEVPLWKIFDAML: the amyloid nucleation score result is “inactive”.
Substance QMSCNQRNISMGFKIGRFYM had an amyloid nucleation score of 1.5 ± 0.061.
In the case of MGNLVNSNVGSTLSKKIRND it was 0.351 ± 0.35.
For the substance SKPNMAELKLHFTGYPHPAK, the amyloid nucleation score entry was “inactive”.
As for KDLKMYRGF, the amyloid nucleation score entry is “inactive”.
In the case of KVAILVHILNNLVRVRVCFN, the amyloid nucleation score result was “inactive”.
In the case of RWYAVLYHLV it was “inactive”.
For the substance VGASQRVYSLLST, the amyloid nucleation score result was “inactive”.
Consider FVFGN, for which the amyloid nucleation score result is “inactive”.
Take CSLIQSVRSTA: the amyloid nucleation score result was “inactive”.
For VYRLFRMYILTGGLNVNGGR, the amyloid nucleation score entry was “inactive”.
In the case of SIEKAILCSCVVSMPIMRGG it was 2.3 ± 0.081; in that of CSIGVRSVVCS, “inactive”; in that of YMESVARNSLRVSDCNAK, 0.7 ± 0.14.
As to MYSHLNTCTTAKPQVFCSKL, the amyloid nucleation score result is “inactive”.
As for SNCRCIEGVFYHTYNQKAVR, the amyloid nucleation score entry was “inactive”.
With PQPARLDQGGYISDMYCYVI the figure was -0.362 ± 1.3; with PSTDVILSANWDDRRSGLYG, “inactive”.
LFLSMGYLDGFYPIRSISYL: the amyloid nucleation score result was “inactive”.
LISAYVGWDICLASML: the amyloid nucleation score entry is “inactive”.
Turning to SWFPP, the amyloid nucleation score result is “inactive”.
Turning to FEEYAIYPVAKGSVKMDAAL, the amyloid nucleation score result was “inactive”.
For the substance SQITRMTPPVSIAADSRFVE, the amyloid nucleation score entry was “inactive”.
RLVSLSPNLLMYSNVLDYLK: the amyloid nucleation score entry was “inactive”.
With CDRRFYRMNLCKNPFNYRFG the figure was 0.55 ± 0.16; with VTRHEFVLLLETVPISYWPH, “inactive”.
As to TRLRSTPVLVVNW, the amyloid nucleation score entry was “inactive”.
Take CYTMSNVRVPWKRGICYCGL: the amyloid nucleation score result is “inactive”.
With GSGLPLTALRSTYVAAPHSE, the amyloid nucleation score result was “inactive”.
Turning to LFFYFLEPR, the amyloid nucleation score result was “inactive”.
Take SRAAPRFRSIP: the amyloid nucleation score entry was “inactive”.
In the case of FIIPSSMTHMARKNIVRAW it was “inactive”.
As for SERPDFMDYEEMLGYAVKWR, the amyloid nucleation score result is “inactive”.
Regarding LDRSVMIRFGLELMRWSSGG, the amyloid nucleation score worked out at 0.356 ± 0.35.
Take YVKGRSETCPKDRIKGVRSD: the amyloid nucleation score entry is “inactive”.
For GASCLCWNYRDRLRTEVRYY, the amyloid nucleation score entry was “inactive”.
Substance NKWYSNLQNCCCSLNHTGEG registered an amyloid nucleation score of 0.624 ± 0.23.
GGKVSERRYVDLCRLPSVAP: the amyloid nucleation score entry was “inactive”.
In the case of KLLLMGCRDVYFSYRIFM, the amyloid nucleation score stood at 3 ± 0.054.
In the case of RKLGLEYGITMSCASLLALR it was “inactive”.
